Laboratory results: CN114573704A (dated 2022)

What was measured:
[1] = target: T1, 筛选及检测用人PD-1抗原 (human PD-1 extracellular domain with His tag, Sino Biological Cat.10377-H08H) (human, UniProt Q15116 25-167); experiment: SPR Biacore T200, antibody captured on protein A CM5 chip, PD-1-His as analyte
T1 construct: Bought product; the entry holds the extracellular domain and the His tag; also called PD-1蛋白

[2] = target: T2, 筛选及检测用人PD-1-Fc抗原 (human PD-1-Fc, 百英生物 B3789) (human); experiment: competition ELISA, PD-1-Fc coated, biotinylated PD-L1 as competitor, antibody titrated
T2 construct: also called 带Fc标签的PD-1融合蛋白

B1: WO2017054646中的IgG4型PD-1Ab646 (antibody, V domains shown)
VH: EVQLVESGGGLVQPGGSLRLSCAASGFTFSSYMMSWVRQAPGKGLEWVATISGGGANTYYPDSVKGRFTISRDNAKNSLYLQMNSLRAEDTAVYYCARQLYYFDYWGQGTTVTVSS
VL: DIQMTQSPSSLSASVGDRVTITCLASQTIGTWLTWYQQKPGKAPKLLIYTATSLADGVPSRFSGSGSGTDFTLTISSLQPEDFATYYCQQVYSIPWTFGGGTKVEIKR
notes: IgG4 positive control
B1 gave a Kd [1] of 7.75 nM, a koff [1] of 0.000479 s⁻¹ and a kon [1] of 61800 M⁻¹ s⁻¹. The IC50 [2] was 2.79 nM.
